First the molecules themselves.
T1: Acetyl-CoA synthetase AcsA (Bacillus subtilis) (Bacillus subtilis) (UniProt P39062)
T1 sequence: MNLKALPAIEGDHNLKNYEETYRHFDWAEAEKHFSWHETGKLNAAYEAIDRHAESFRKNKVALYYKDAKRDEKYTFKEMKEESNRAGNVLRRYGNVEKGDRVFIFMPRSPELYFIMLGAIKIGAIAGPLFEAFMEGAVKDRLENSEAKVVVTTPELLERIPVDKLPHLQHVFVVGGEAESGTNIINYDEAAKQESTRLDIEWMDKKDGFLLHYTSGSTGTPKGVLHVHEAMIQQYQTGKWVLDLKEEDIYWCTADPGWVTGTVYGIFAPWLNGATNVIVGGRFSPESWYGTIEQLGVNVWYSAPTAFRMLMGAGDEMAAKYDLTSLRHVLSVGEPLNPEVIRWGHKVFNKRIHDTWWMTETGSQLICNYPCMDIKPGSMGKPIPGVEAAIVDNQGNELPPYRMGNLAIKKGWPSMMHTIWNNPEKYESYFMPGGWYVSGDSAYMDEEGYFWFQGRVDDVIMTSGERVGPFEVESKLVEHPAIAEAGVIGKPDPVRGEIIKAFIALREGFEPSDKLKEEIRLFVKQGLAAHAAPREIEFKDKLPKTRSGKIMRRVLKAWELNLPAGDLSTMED

B1: AcuA C-terminus peptide (201-…-210) (peptide)
peptide: RLRFYHRYMY
B2: GCN5-related N-acetyltransferase AcuA (Bacillus subtilis) (enzyme)
chain: MEHHKTYHSANIKTATGSLLIEGPVSPEDLAGYEFHKDLTAFRPPREQHEALVDIAGLPEGRIIIARDGRTIVGYVTYLYPDPLERWSEGNMEDLIELGAIEVAPDYRGCAVGKTLLTVSMMDEQMENYIVMTTEYYWHWDLKGMKKDVWEYRKIMEKMMNAGGLVWFATDEPEISSHPANCLMARIGKNVSQESIEQFDRLRFYHRYMY
B3: GST-AcuA_E102Q (enzyme, Bacillus subtilis)
chain: B2 chain with E102Q
notes: source: E. coli BL21(DE3), purified
B4: Acetyl-CoA synthetase AcsA (Bacillus subtilis) (enzyme)
chain: T1 sequence
notes: AcsA, acetyl-CoA synthetase of Bacillus subtilis; gene amplified from genomic DNA of strain 3610; catalytic lysine K549; the gene came from strain 3610; Monomer and dimer seen by mass photometry; also called Ac-CoA synthetase; source: E. coli BL21(DE3), purified (HisTrap, SEC)

For one data set, the target named is T2, AcuA (Bacillus subtilis, UniProt P39065).
T2 construct: monomer 21 kDa by mass photometry
Put plainly: isothermal titration calorimetry, one binding site model. Background: ITC needs no label: the signal is the heat of the interaction.

Data set [1] has as its target T1, Acetyl-CoA synthetase AcsA (Bacillus subtilis) (Bacillus subtilis).
In data set [2] the target is B4. The experiment in a line: cell-based or functional assay.
Data set [3] addresses B4. The experiment in a line: pull-down; 200 μg GST-tagged protein immobilised on GST-Sepharose beads in spin columns, 200 μg partner added in SEC buffer (20 mM HEPES-Na pH 7.5, 200 mM NaCl, 20 mM KCl, 20 mM MgCl2), 30 min, three washes, elution with 20 mM GSH, Coomassie-stained SDS-PAGE; without Ac-CoA (also with 1 mM ATP, 1 mM AMP or 130 μM CoA, or with AcuB and AcuC added). Conditions: both partners purified.

Substrate in the data set “purified protein”: CC(=O)O
The experiment in a line: purified protein. The conditions noted are these: without AcuA; 1 mM CoA, ATP 2.5 mM or 2 mM, 0.1 mM DTT, room temperature.

Data set [4] concerns the molecule itself. The experiment in a line: mass photometry; TwoMP mass photometer, SEC buffer, 37.5 nM final protein concentration; proteins alone or 37.5 nM AcsA with 37.5 nM AcuA.

Residue numbers refer to the chain shown, from its start.

On to `CC(=O)SCCNC(=O)CCNC(=O)[C@H](O)C(C)(C)COP(=O)(O)OP(=O)(O)OC[C@H]1O[C@@H](n2cnc3c(N)ncnc32)[C@H](O)[C@@H]1OP(=O)(O)O` [Ac-CoA], for which the Kd at AcuA is 9.47 ± 0.51 µM.

With B1, in data set [1], the AcsA activity (HPLC) with 0-1 mM AcuA C-terminus peptide; reduction of activity at 1 mM came out at 90%.

With B2, in data set [2], the “Vmax of Ac-CoA production by AcsA (HPLC) at AcsA:AcuA ratios 1:0.5, 1:1, 1:2, 1:5: 1834 down to 390 nmol mg^−1 min^−1 (without AcuA 2167)” value was found to be 1830 nmol/mg/min.

In the case of B3, in data set [3], the binding result is listed as “binds”.

As for B4, in the data set “purified protein”, the Michaelis constant (Km) came out at 430 µM and the maximum rate (Vmax) worked out at 2.17 µmol/min/mg. Also, the “stoichiometry N” value in data set [4] is 2.

The term Kd denotes a measure of binding affinity in units of concentration. A lower Kd goes with a tighter complex. The Km is the substrate concentration at which the rate is half of its maximum. The term Vmax denotes the top rate of the reaction or transport when substrate is in excess. In general, stoichiometry N refers to a count of units in the complex or per binding partner.
